This note sets out measurements from PMC10679814, “Yeast lunapark regulates the formation of trans-Sey1p complexes for homotypic ER membrane fusion” (iScience, 2023).

The target in assay [1] is Sey1p-ΔTM (S. cerevisiae). In words: SEC; Superdex 200 (10/300), 20 mM HEPES-NaOH pH 7.4, 150 mM NaCl; Sey1p-ΔTM incubated at 30°C for 1 h with GMP-PNP, without or with the Lnp1p peptide.
For assay [2], the target named is T1, His6-tagged Sey1p-(1-283) (S. cerevisiae, UniProt Q99287 1-283).
T1 construct: Sey1p, S. cerevisiae, amino acids 1-283 (GTPase domain); in pET28a; also called GTPase domain of Sey1p; source: E. coli Rosetta-2 DE3, purified (Ni-NTA)
T1 sequence (looked up): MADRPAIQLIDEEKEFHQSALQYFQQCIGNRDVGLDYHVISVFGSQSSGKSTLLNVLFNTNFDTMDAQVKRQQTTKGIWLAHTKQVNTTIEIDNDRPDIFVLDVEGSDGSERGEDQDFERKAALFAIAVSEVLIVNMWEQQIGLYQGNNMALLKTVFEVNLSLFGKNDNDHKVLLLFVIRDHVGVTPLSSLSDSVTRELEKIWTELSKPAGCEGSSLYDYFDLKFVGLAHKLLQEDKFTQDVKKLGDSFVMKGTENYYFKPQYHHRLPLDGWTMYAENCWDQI
As to the kind of experiment: pull-down; 40 μg his6-tagged protein with 20 μM Lnp1p peptide in RB150 buffer, 0.4% Triton X-100, 20 mM imidazole, 4°C 2 h; Ni-NTA agarose 30 min; SDS-PAGE, Coomassie. The note with it: both partners purified.

Assay [3] deals with T2, His6-tagged Sey1p-(1-675), the N-terminal cytoplasmic region of Sey1p (S. cerevisiae, UniProt Q99287 1-675).
T2 construct: in pET28a; source: E. coli Rosetta-2 DE3, purified (Ni-NTA)
T2 sequence (looked up): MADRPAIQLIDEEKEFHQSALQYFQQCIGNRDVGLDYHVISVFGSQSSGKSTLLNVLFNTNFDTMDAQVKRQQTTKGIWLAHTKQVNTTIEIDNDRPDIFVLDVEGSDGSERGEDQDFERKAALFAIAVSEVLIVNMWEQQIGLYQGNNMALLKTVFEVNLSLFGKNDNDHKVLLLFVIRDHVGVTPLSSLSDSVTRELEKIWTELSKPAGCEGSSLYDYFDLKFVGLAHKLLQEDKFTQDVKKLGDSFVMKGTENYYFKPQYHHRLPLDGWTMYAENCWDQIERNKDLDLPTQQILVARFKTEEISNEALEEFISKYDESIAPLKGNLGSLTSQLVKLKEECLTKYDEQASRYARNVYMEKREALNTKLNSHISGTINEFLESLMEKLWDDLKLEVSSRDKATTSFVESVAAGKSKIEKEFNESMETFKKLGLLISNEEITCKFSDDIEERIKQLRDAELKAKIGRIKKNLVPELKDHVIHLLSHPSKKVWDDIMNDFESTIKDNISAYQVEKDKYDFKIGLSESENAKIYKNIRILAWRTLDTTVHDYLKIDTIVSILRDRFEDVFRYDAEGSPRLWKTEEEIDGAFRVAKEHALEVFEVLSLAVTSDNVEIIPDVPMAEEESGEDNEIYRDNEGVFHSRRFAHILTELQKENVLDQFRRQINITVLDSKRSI
The description is as above. The note with it: both partners purified.

Consider Sey1p-ΔTM (domain or fragment), for which the stoichiometry N (usually a count of units in the complex or per binding partner) in assay [1] was 2.

B1: Lnp1p peptide, a synthetic peptide with the N-terminal region (amino acids 1-52) of Lnp1p (peptide, UniProt P38878 1-52, looked up)
peptide: MFSALGKWVRGSRNDKDFVTKYTADLSQITSQIHQLDVALKKSQSILSQWQS
notes: Lnp1p (yeast lunapark), S. cerevisiae, amino acids 1-52; also called LNP1 peptide; source: synthetic peptide (custom, Anygen)
On to B1, for which the binding result in assay [2] and in assay [3] was “binds” in each case.
